Test results from the domain aggregation screens of Martell et al. (2025).

test: soluble fraction after stress (log2 fold change); higher = more stays soluble; pooled small domains, quantitative proteomics; conditions: stress: 50 degC
How it was run: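 Pooled custom libraries of small protein domains were measured in a high-throughput format, with quantitative proteomics as the read-out. Each library was stressed at 50°C. Aggregation propensity is given as the base-two logarithm of the fold change in how much of each protein stays soluble after the stress. Higher values mean a larger share of the protein remains in solution.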

Row | Sequence | soluble fraction (log2)
1 | HMDKSHYEELGVSRTATHAEIRRAYRHLMRTLHPDSNDGRVDAVRITKVNEAWNVLSQSSSRNAYDKSQV | -0.38
2 | HMISAEPVGEDLFKVAFPFLGGSTVFEKTIEQFIEEHPSKRIDHIYTVPNPLRLKKADALIFYIITEEK | -1.02
3 | HMNSGFEVFREVVNQGSFIGAANALGISAPAVSKQIKLLENRLGLLLLYRTTRNVTLTDIGKQLFDTLDNS | -1.97
4 | HMLEINTIIGNNLKKIRQEKKLTLDELAGITGVSKGMLSQIEKGTTNPTINTIWKISNGLNVPYTYLLEDD | 0.183
5 | HMDPTVSGQTGSVVREIRPGVPGEVELSVPLYGIRRWQAMADGILAEGTRVTVIQAEGVRLSVRPV | -0.0839
6 | HMSVEYRKTLSDGNEYQIVKEKNGYVIKKSLNEGLDYLEPMKNRKYYSSYSQAFKRLNLIAKEVNINEGYD | -0.138
7 | HMVSDSAELSAFVADVIKENAQAVADYKGGKTNVFGWLMGQIIKKSGGKATPAAAAALLKAELEK | 0.0521
8 | HMLVMTDNVIKAINDLLNYEAAAGIKKKQRYTAYQIYKELSEQGVYHGSRRRMEEVVSKLRVERNQI | -2.78
9 | HMTDFDWSLFTQQLKRFNLFLSYDDREKLQTFQTLYGLNELDLAEYVAKASAGEKNGLNFNYLRQLINKEK | -0.465
10 | HMGRELDLNQRVYDFIHDIADEVRTDEGTFSANQMMERFLFPGDLQSVPIGRLSGGERRRLYLLSVLMVKI | 0.117
11 | HMPVYEEEVPAALDGQRLDRVVAMVTGLSRSEVGALLAAGAVTVDGTTPAKGSVRLAAGSIVSVTVS | -0.145
12 | HMPRIYSITINPEKIRTVIGPGGKVIKDITAKTGTKIEIDDSGKVDIFSPDEEHARMAVEIINTLTEE | 0.14
13 | HMSSKSDQLYLQLRRRISAMKDGEPFPTVRQLMTEYQVSQSTVTPAINQLKEKGLIEAYVGRGSFVSKK | -0.615
14 | HMFNISEKLKKYRNALGLTQTEVAEKIEITKPTYASYEKGKDISIGTLKKLADLFEVSFESFFSE | -0.168
15 | HMGDLTVPDLSGLTVDQAKQRLKDMGLVLGKITTQEDSSKPDGVIISQSPSADGKINKGQLVDVVVNKLS | 0.0463
16 | HMNVDALVGMPARVTRAFVQGAGEVKLDNGETWTARLSAGVTDAEASVGQTVSVIAVRGAAVEVAPE | 0.0386
17 | HMELEKIRPDLDGLEIMAILGISPSPIVGRAYQYLLDLRMDRGPLGPDAAKAELLNWWSLNQPK | -1.3
18 | HMSNQLAVPDVTNMKANAAADRLRQQGLRVELKTESSNTVPRGMAIRTDPAASTMVARGGRVTLIISSGKG | -0.000921
19 | HMDGIPVPDVKGTVEAEATATLKNSGFEVTKTQDFSDTVEAGKVISQNPAGGSSAASGSSVTLVISQGPN | 0.0569
20 | HMENNIILNYVKDNLNITEKDAKDLIELLGSDYYHIKNETNKIAAFLDGQPYSFEKIKNLISIDKEY | 0.0808
21 | HMANHIAAIHVLKSKLQMSDSDYRVLITGLTQKASTKDMSDIERQRVRDHMQGLAERMGVVK | -0.18
22 | HMGAGKVVDGVTYDFVFDVDVADGQPPLRLPYNRGEDVYQAAERFILRNELPATYREQIVNFIVQNTPG | -0.131
23 | HMEEFDLNAYITKINSAATLNALKQAYAEANSAALSVKDKDAQRKIIVEKDKRKAELIQETAG | 0.31

Row | Sequence | soluble fraction (log2)
24 | HMKEVVKVTITPSEKLKSQYPDALVSIDGKFYDLGILNNPVEFYMDKDHKISIIWSTAELVESFRI | -0.00922
25 | HMYKDVVVPNTVGDSEEKAYQTLSALGLVVNITYDEDASKSDRVVTSQNPTNKTIKEGESVNIVVNKQP | 0.0711
26 | HMAMTNEEREALISEIKQTVNNSIDLKKDISDTEIKEAITQAVFERSEKSYLSIAEKQDIITAVFNSMR | 0.0202
27 | HMISAADLQTYLKGMDYPAGREDLVAHAQRNNAPESVITILQGFSDRTYRSAAEVSEEFGRE | 0.194
28 | HMEMVSMPGLTGSTLEFATKTLTENELKYEVVYIVDASAESGLIIRTYPTEGEMVSKKTSTIYLYIKE | -0.756
29 | HMSHDTLVYRLAQMLVKLNQGEKLDPQQLAEEFGVNLRTIQRDLNVRFAYLQLEKTDGRYHLDPTFL | -0.999
30 | HMNEPITIALREAEEAANKILNEGVHSVELSPQNGYVRRLQHELIARYGLTSASRGSDPSRRVSVGAN | -0.212
31 | HMNTEVDKVLLRSGEAYFGEVLLRNDELVMMKTQDGARFQFPVSEIKSIEKVSVADALRHINS | 0.0758
32 | HMGFYDLFINLADKVGSLADVTQILAEARINLVNVHILEIREEIDGIAQLTFSSEKDRQKALELLKTKYK | -1.33
33 | HMEEIALTDILNRFLSSLSLEQRKIFMRRYWYLSPIKEIATEYGMSESKIKMSLFRSRNELKKLLEKEGI | -0.396
34 | HMQDQVTLIVQVNGKLRGQISISTDATKELIEQTALANENVQKFVDGQSIKKIIIVPGRLVNIV | -1.12
35 | HMRRARVAGKGHFTGEDAMAVYRELEALFGETETLYLPGHRPFEAVLSKLALIGVPEKNTVPYTFAFVET | -0.433
36 | HMNGDYFEYRYAVNGSRSTPPSLSKTSRNPSGWSTTVPTVGNLQYLWFTVAKINGETNSLIQNWSTPARQT | -0.13
37 | HMKILKQLEAIIEKEGLNESAKQFYLREISELDKEKQQEIINLVDKMEQAGFKNNLASAFSEVTEDIPQF | -0.0195
38 | HMVEREYRLEVPPEAEGKRLDQFLVNQPVQLSRSQVQHLIQNGLVLVNAKTRRSSYRVHTGDIIEMQVPA | 0.327
39 | HMKREWKDDDPTVPAGWKVAWTTTSDNRAKIAFMSPDKKIFHSRKSALQHMLAAGTYAQSDIEKMTKGL | -0.112
40 | HMQPIEIQDRITKAFERSAALEAKNINVEVDGHTVKLTGTVHSLTEKEEARKAAFFAPGVTKVENHLIVDY | 0.0426
41 | HMKPQKRYLFEEVLTFLKHNSEKSFNYKQLGAAMEISNESDRFTLLETLEELKHQGFVVEKEIGKYQAKE | -0.527
42 | HMRTSIWTAIAHSLRSDIGSGVYGPDDKLPTESALAARFGVNRHTVRHAIKALTDEGLVLPRRGAGVFVTS | -0.21
43 | HMRIGINDRIHEIVDVLRLKKSTPFEDLFSGLVTRFDLVITFLALLEMGKLRLLRLYQTDPLAPLHVEYTG | -0.152
44 | HMKTKMTPELTTVIEAQIQKEWSPEQISGWLKKTHPVSVSHQRIYQHIQADRQQGGTLHQHLRQAK | 0.163
45 | HMDYTPIEVKDLPQAIQDALTKNFSEYTVKSAAYQEDEDGVKIYQVTVVDEEGTEANIFFTEKGE | 0.0163
46 | HMYTLGEESDGTVRLLELYDIIKNKNEKIFVVDELDRSLHPNLTFNFVKKYLSIENKSQLIVSTH | -0.0206

Row | Sequence | soluble fraction (log2)
47 | HMQDTTLTSQILRVPSSVNINDLANVLKSLAGKNTVVAPYKAANTIIITGYAPNVRRVLSLANELIPRLDV | -0.53
48 | HMGMVDKSMYSRYDVGDLVKVLRGPLEGSEGHITEINTDTGTVKVETVFFGRSTVVEVDFSEIDK | -0.281
49 | HMRPSGEAVNAAYRLLKGANPSGNEGDLIQRAQEVAAILPKLNRSSAAAFAKDAKANGLTQAETIALWKGS | 0.225
50 | HMYPATGTVVTAGGHLNMRSEPDRSGAILARIPNGTALTLTGKNGDWYAATYAGRSGYVSAQYISLS | -0.0468
51 | HMAVSSYSVKRYIRNMIQAEDPSAPFSDEALRLALLAHGIAVSRRVVTKYRMAMDIPSSSQRRKR | -0.866
52 | HMKTRTVVLKSAGGNKIAVIKIIKEITGLGLVEAKAVADNGGNIKENIPAEEAEAIKTQLTEAGAEVEL | -0.192
53 | HMEPMNMYSSIKKVIGVVSGKGGVGKSLVTASLARMMRAKGYHVGIMDADITGPSIPKMYGLHEMA | 0.42
54 | HMELGWYVRLRRRELGLSVTALAEKAGMSQSYLSQIETGDRGNPSPESLRSLAEALEVSPRELESLV | -0.331
55 | HMGFKLQRYTTFVVERLKKYQDTPAAQMHDLLKEHYPDFPAVSPKTVYNYVMKIRQEHGLPAV | -3.63
56 | HMKNKFYEEFSDYIFKHTGIHYAEANYYQLDARINKLMKFLETSDENDVLKAIQGGAVKDQRVHQMIVDLA | -1.7
57 | HMFMNFAEHLMALRKQRGWSQEELGSQIGVTRQTVSKWEMGQSTPELEKLVELSRLFGMSIDQLVGL | 0.0203
58 | HMKTRNISGNHEAVWQAVRSRTQAGHPTTRAVIMDDLKAQGLNTQKFSRWLKKLVDDGSVYMDGDTIIMGK | -0.186
59 | HMTYSSESVRYRIKSLIDNETIDEILSDDKIVNILKSQGIDVARRTVAKYREAMGLASSIQRRREKKSA | -0.375
60 | HMADRLITLSEVASLLRVSRHTVQAWISPSSPNHRPEFAIMARHAGRRTVFIEAEVTAWLDQRRG | -1.95
61 | HMNINLDINTYTVKELEKLLKLEVPYSDNNVFEKKNLMVKMIQTSTIAETKKEELYIFLDNIYNRLTNNLE | -1.35
62 | HMLNLNEAEKSIYVLIKKNESNNLNKVKEDSNLSNKAWDKGIKNLVKNNLVKVVKSNEGLFIQLV | -0.345
63 | HMAHYYVRNGYYYYQRRIPLDLRKFYSGANIKASLKTKDPAIAALFVAKFDRQYDAEFAQRRLNPD | -0.482
64 | HMNENFPYRLKEMVVVQSRTWPGINKPGGVGQVMKINPEAGTVNVKYVLGGSEKNIELKYVTSNDLNSK | -0.536
65 | HMEPVDYEALRKELMQKVMGLFTQSRDVGIQILSSFGAKKLSDVPDDKLVAFAASVDKALAG | -0.0404
66 | HMSTEPLALVGKTGIAATVLRPSGRIEVDDKYYDAVSLGAFIEKGEMVNIVKYENLQLYVAKL | -0.0644
67 | HMSFDNIKVGYISETAGYVKGISLADANEYAKLNPDTEFIFIDGDEKVRFLTINEVNGLTPKNLLRSDP | -0.23
68 | HMSVPRVWTDIQGRRVKGDFEGLRGDLVVLRVGGKSYAFPLVRLIASDQAYARSLVAGNPSK | -0.499
